Paper PMC314469, “Protein Interaction Networks by Proteome Peptide Scanning” (PLoS Biology, 2004)

B1: Q96DN1 10-23 (peptide)
chain: LYWLLRRPSGVVLS
B2: Q96Q82 70-83 (peptide)
chain: LVSRLRRPVSEVSG
B3: Q9H8Y6 68-81 (peptide)
chain: LVIRLRRPPLRSPR
B4: Q9NS62 435-448 (peptide)
chain: LWRRFGRPAKSSTP
B5: O15450 763-776 (peptide)
chain: APVPLLRPHRPSGP
B6: Q9H3C0 95-109 (peptide)
chain: LVIRPPRPPKVLRL
B7: Q14209 197-210 (peptide)
chain: MFEDPTRPGKQQQL
B8: Q96M26 524-538 (peptide)
chain: MEHSPQRPPRTEPT
B9: Q9P0N2 51-64 (peptide)
chain: MDGFLSRPSRPLLQ
B10: Q9UK56 265-278 (peptide)
chain: LVNGFLRPLRMAAS
B11: P11230 356-369 (peptide)
chain: LYLRLKRPKPERDL
B12: Q13972 262-275 (peptide)
chain: LVNNFLRPLRMAAS
B13: Q9H4M9 114-127 (peptide)
chain: LVVDPRRPFRKLNA
B14: P08700 68-81 (peptide)
chain: MENNLRRPNLEAFN
B15: Q96NX2 418-431 (peptide)
chain: LTVAIRRPPDLGGP
B16: Q9Y2K7 133-146 (peptide)
chain: LTVTLQRPTKELHG
B17: Q08493 32-45 (peptide)
chain: LWRQPRRPIRIQQR
B18: Q9Y2E4 454-467 (peptide)
chain: LTVAIRRPTDDSNQ
B19: Q14185 317-330 (peptide)
chain: LTSGLRRPFGVAVM
B20: P20849 777-790 (peptide)
chain: MAASLKRPDSGATG
B21: Q9HC66 56-69 (peptide)
chain: LVIRLPRPPKVLRL
B22: Q9Y2W3 70-83 (peptide)
chain: LVSIPERPLRPPSE
B23: P39189 565-579 (peptide)
chain: LVIRPPRPPKVLGL
B24: Q14324 1104-1117 (peptide)
chain: LTLNIRRPSPFDAG
B25: Q9NU18 93-107 (peptide)
chain: LYRFPGKPPTYVTD
B26: Q8WUS6 527-541 (peptide)
chain: MAGLPFRPPWGSLS
B27: Q14934 712-726 (peptide)
chain: MDFSPPRPPYPSYP
B28: Q16827 346-360 (peptide)
chain: LTWLPPKPPTAFDG
B29: Q03112 565-579 (peptide)
chain: LTPVPSKPPVTPAT
B30: Q9NW15 466-479 (peptide)
chain: MSRVFKRPFSEPSA
B31: Q9H455 29-42 (peptide)
chain: LYRGLSRPIRRTTQ
B32: Q9NXU2 68-81 (peptide)
chain: AQARLKRPLKSLDG
B33: Q9HAJ1 68-81 (peptide)
chain: LVIRLRRPPLRYPR
B34: Q13635 1311-1324 (peptide)
chain: LWPPLYRPRRDAFE
B35: Q04637 602-615 (peptide)
chain: LTSFLRRPFQSPTS
B36: Q13573 443-456 (peptide)
chain: MAQSIYRPSKNLDK
B37: Q9Y2E4 57-70 (peptide)
chain: LVNTLKRPKRPPLR
B38: Q9BZJ7 289-302 (peptide)
chain: LYGLLQRPVRLALG
B39: Q99743 799-812 (peptide)
chain: AQPQPLRPPRRVSS
B40: Q96EY9 124-138 (peptide)
chain: LVPVPARPPLTRGQ
B41: Q9C0B5 292-305 (peptide)
chain: APRYLGRPKKEKTI
B42: Q14997 962-975 (peptide)
chain: LVLEFLRPDRQGVT

Tests used:
[1] = target: endophilin SH3 (SH3G2_HUMAN), Q99962; experiment: SPOT array
[2] = target: T1, amphyphisin SH3 (AMPH_HUMAN), P49418; experiment: SPOT array
T1 chain: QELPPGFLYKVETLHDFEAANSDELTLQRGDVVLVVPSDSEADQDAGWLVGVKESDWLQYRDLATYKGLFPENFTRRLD

Binder	normalised SPOT signal, Boehringer light units (BLU); mean over the file's lines of this peptide [1]	normalised SPOT signal, Boehringer light units (BLU); mean over the file's lines of this peptide [2]
B1	158	180
B2	96.8	112
B3	12900	90.6
B4	114	105
B5	704	1350
B6	19500	14800
B7	120	18.6
B8	1100	14500
B9	236	295
B10	176	4910
B11	70.6	42.9
B12	1250	12100
B13	179	2940
B14	14.8	27.1
B15	17.9	23.5
B16	192	94.9
B17	1000	3170
B18	158	29.3
B19	43	35.6
B20	34.5	27.1
B21	2110	1960

Binder	normalised SPOT signal, Boehringer light units (BLU); mean over the file's lines of this peptide [1]	normalised SPOT signal, Boehringer light units (BLU); mean over the file's lines of this peptide [2]
B22	310	3540
B23	20800	12400
B24	159	8.1
B25	157	39
B26	4340	73
B27	978	18
B28	71.7	24
B29	37	55.4
B30	627	88.8
B31	234	789
B32	109	117
B33	6210	387
B34	3920	1260
B35	1560	70.3
B36	185	153
B37	48	408
B38	1110	1270
B39	1160	25300
B40	3430	2950
B41	69.5	7.1
B42	49.7	732
